Assay results from US11168316B2, “Chimeric clotting factors” (Bioverativ Therapeutics Inc., priority 2012, dated 2021).
Ends that are not written are not given here.

Target: T1, thrombin (Homo sapiens, UniProt P00734)
T1 construct: followed by 50 μL of thrombin (278 nM, 10 μg/mL)
Test: Cleavage of peptides by 1.4 nM thrombin (HPLC)
Type: biochemical
Settings: 50 μM peptide, 37° C.
Description: FIG. 19 depicts the cleavage of Compounds 1, 4, 5 and 6 by 1.4 nM thrombin. Compounds 1, 4 and 5 incorporate PABC and different thrombin-cleavable substrates. 50 μL of peptide (1 mM) in water was added to 900 μL PBS. The mixture was incubated at 37° C. for 30 min, followed by 50 μL of thrombin (27.8 nM, 1 μg/mL), giving the following approximate initial concentrations: thrombin=1.4 nM, peptide=50 μM. The mixture was incubated at 37° C. Aliquots (95 μL) at various time points were quenched with 5 μL of hirudin (2 μM) and injected into the HPLC (C-18 column, CH3CN/H2O, 0 to 70% over 12 minutes, 60° C. 0.5 mL/min, λ=280 nm). The decreases of peptide peak areas were used to calculate yield.

Ala-Leu-Val-Pro-Arg-Ile-Val-Gly-Gly-Gln-Glu-NH2 (ALVPRIVGGQE-NH2; also: PABC self-immolative linker, place not given here) [Compound 6]
thrombin-mediated release of peptide IVGGQE: not observed
